Our source for the pseudotyped virus neutralization IC50 and pseudotyped virus neutralization IC80 values is patent publication US20240117011A1.

In this test the target is full-length SARS-CoV-2 spike, WA-1 / Wuhan-1 (S wt) (SARS-CoV-2) (UniProt P0DTC2). Description: cell-based or functional assay.

The substance LY-CoV555 (antibody) had a pseudotyped virus neutralization IC50 of 0.0071 µg/mL and a pseudotyped virus neutralization IC80 of 0.0357 µg/mL.
